In patent US20190062420A1 (Janssen / Centocor, published 2019):

Tests used:
[1] = molecular target: T1, human FcγRIIB (NM_004001) expressed on cells (human, UniProt P31994 43-310); assay: cell-based or functional assay
T1 sequence: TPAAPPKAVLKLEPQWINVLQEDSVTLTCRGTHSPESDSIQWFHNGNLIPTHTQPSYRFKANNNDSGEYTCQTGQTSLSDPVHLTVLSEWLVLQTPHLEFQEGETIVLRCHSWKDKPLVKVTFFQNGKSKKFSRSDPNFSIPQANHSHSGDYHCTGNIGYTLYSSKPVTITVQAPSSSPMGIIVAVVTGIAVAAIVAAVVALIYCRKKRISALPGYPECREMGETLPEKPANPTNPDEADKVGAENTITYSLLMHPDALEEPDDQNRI

[2] = molecular target: T2, human FcγRIIA (NM_021642) expressed on cells (human, UniProt P12318 36-317); assay: cell-based or functional assay
T2 sequence: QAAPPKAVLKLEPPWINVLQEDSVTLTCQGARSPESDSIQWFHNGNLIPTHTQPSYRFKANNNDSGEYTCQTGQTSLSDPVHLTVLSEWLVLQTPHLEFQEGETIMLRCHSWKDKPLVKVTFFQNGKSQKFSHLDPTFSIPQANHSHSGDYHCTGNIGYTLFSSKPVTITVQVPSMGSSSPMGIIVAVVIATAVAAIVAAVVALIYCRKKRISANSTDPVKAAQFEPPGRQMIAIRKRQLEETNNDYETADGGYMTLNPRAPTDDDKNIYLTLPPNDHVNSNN

[3] = molecular target: T3, human OX40 expressed on HEK-Blue: OX40 cells (human, UniProt P43489 29-277); assay: flow cytometry; HEK-Blue: OX40 cells
T3 construct: also called CD134
T3 sequence: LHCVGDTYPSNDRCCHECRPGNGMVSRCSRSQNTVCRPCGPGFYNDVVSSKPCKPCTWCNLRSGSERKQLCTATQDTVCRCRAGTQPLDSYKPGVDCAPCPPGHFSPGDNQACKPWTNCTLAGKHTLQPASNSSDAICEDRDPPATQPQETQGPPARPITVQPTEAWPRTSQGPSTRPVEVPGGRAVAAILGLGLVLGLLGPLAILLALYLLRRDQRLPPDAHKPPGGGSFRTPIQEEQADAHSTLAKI
Method: (§1) 2×10⁵ cells per well were seeded in 96-well plate and blocked in BSA Stain Buffer (BD Biosciences, San Jose, USA) for 30 min at 4° C. Cells were incubated with test mAbtyrin on ice for 1.5 h at 4° C. After being washed twice with BSA stain buffer, the cells were incubated with R-PE labeled anti-human or anti-mouse IgG secondary antibody (Jackson Immunoresearch Laboratories) for 45 min at 4° C. The cells were washed twice in stain buffer and then resuspended in 150 μL of Stain Buffer containing 1:200 diluted DRAQ7 live/dead stain (Cell Signaling Technology, Danvers, USA). PE and DRAQ7 signals of the stained cells were detected by Miltenyi MACSQuant flow cytometer (Miltenyi Biotec, Auburn, USA) using B2 and B4 channel respectively. Live cells were gated on DRAQ7 exclusion and the geometric mean fluorescence signals were determined for at least 10,000 live events collected. FlowJo software (Tree Star) was used for analysis. Data was plotted as the logarithm of antibody concentration versus mean fluorescence signals. Nonlinear regression analysis was performed by GraphPad Prism 6 (GraphPad Software, Inc.) and EC₅₀ values were calculated.
The binding of mAbtyrins on OX40 expressed on cell surface were investigated by flow cytometry assay described for testing mAbtyrin binding to FcγR. A stable HEK-Blue reporter cell line expressing human OX40 (HEK-Blue: OX40) was established by transfection OX40 expression plasmid (pUNO1-hOX40) into HEK-Blue™ Null 1 cells engineered to express a secreted embryonic alkaline phosphatase (SEAP) reporter gene under the control of NF-κB-inducible promoter (IFN-β minimal promoter). mAbtyrins were incubated with HEK-Blue: OX40 cells and the binding was detected by flow cytometry using a PE-labeled Goat F(ab′)₂ against Human IgG(γ).

[4] = molecular target: T1, human FcγRIIB (NM_004001) expressed on …; assay: flow cytometry; Raji cells (express predominantly FcγRIIB)
[5] = molecular target: T2, human FcγRIIA (NM_021642) expressed on …; assay: flow cytometry; Expi293F cells transfected with FcγRIIA
Method: (§2) Plasmids expressing cDNAs encoding human FcγRI (NM_000566) (SEQ ID NO: 44), FcγRIIA (NM_021642) (SEQ ID NO: 2), FcγRIIB (NM_004001) (SEQ ID NO: 3), and FcγRIIIA (NM_000569) (SEQ ID NO: 45) (Origene) were transiently transfected into Expi293F cells by ExpiFectamine293 transfection kit (Life Technologies). Flow cytometry assays were performed 48 h after transfection.
as §1

[6] = molecular target: T1, human FcγRIIB (NM_004001) expressed on …; assay: flow cytometry; Expi293F cells transfected with FcγRIIB
Method: as §2, §1

[7] = molecular target: T1, human FcγRIIB (NM_004001) expressed on …; assay: flow cytometry; Raji cells (express predominantly FcγRIIB); remark: listed apart in the source
Method: as §1
Raji cell is a cell line derived from B cells that express predominantly FcγRIIB. The binding of mAbtyrins on Raji cells were investigated by flow cytometry assay described for testing mAbtyrin binding to FcγR. Binding of the mAbtyrins were detected by flow cytometry using a PE-labeled Goat F(ab′) against Human IgG(γ).

B1: OX40SF2IgG2sigma_R2BS39_HC-C (bispecific antibody)
heavy: QVQLVQSGAEVKKPGSSVKVSCKASGYTFKDYTMHWVRQAPGQGLEWIGGIYPNNGGSTYNQNFKDRVTLTADKSTSTAYMELSSLRSEDTAVYYCARMGYHGPHLDFDVWGQGTTVTVSSASTKGPSVFPLAPCSRSTSESTAALGCLVKDYFPEPVTVSWNSGALTSGVHTFPAVLQSSGLYSLSSVVTVPSSNFGTQTYTCNVDHKPSNTKVDKTVERKCCVECPPCPAPPAAASSVFLFPPKPKDTLMISRTPEVTCVVVDVSAEDPEVQFNWYVDGVEVHNAKTKPREEQFNSTFRVVSVLTVLHQDWLNGKEYKCKVSNKGLPSSIEKTISKTKGQPREPQVYTLPPSREEMTKNQVSLTCLVKGFYPSDIAVEWESNGQPENNYKTTPPMLDSDGSFFLYSKLTVDKSRWQQGNVFSCSVMHEALHNHYTQKSLSLSPGKGGGGGSGGGGSGGGGSGGGGSLPAPKNLVVSRVTEDSARLSWTAPDAAFDSFLIQYQESEKVGEAIVLTVPGSERSYDLTGLKPGTEYTVSIYGVSHGPWYNYGEWRSNPLSAIFTT
light: DIQMTQSPSSLSASVGDRVTITCKASQDVGAAVAWYQQKPGKAPKLLIYWASTRHTGVPSRFSGSGSGTDFTLTISSLQPEDFATYYCQQYINYPLTFGGGTKVEIKRTVAAPSVFIFPPSDEQLKSGTASVVCLLNNFYPREAKVQWKVDNALQSGNSQESVTEQDSKDSTYSLSSTLTLSKADYEKHKVYACEVTHQGLSSPVTKSFNRGEC
notes: mAbtyrin: anti-OX40 antibody OX40SF2, effector silent IgG2sigma, with linker and R2BS39 FN3 domain at the C-terminus of the heavy chain; also called mAbtyrin
B1 was tested, and the “% activity at 1 µg/ml with Raji cells (HEK-Blue: OX40 NF-κB reporter, relative to 1 µg/ml OX40 ligand)” value [1] was 99.5%, the “fold of agonism enhancement upon crosslinking (Raji cells)” value [1] was 24 fold and the “% OX40 cell killed by macrophages (ADCP, 1 µg/ml)” value [2] was 83%. The “Binding to HEK-Blue: OX40 cells (mean signal at 1 µg/ml)” value [3] was 9320 mean fluorescence signal, the “fold binding signal over OX40SF2IgG2sigma at 10 µg/mL” value [4] was ≥ 6 fold and the EC50 [5] was 0.532 mg/L. For the same binder, the EC50 [6] was 1.87 mg/L, the “Binding to Raji cells mean signals at 10 µg/ml” value [7] was 8220 mean fluorescence signal and the EC50 [7] was > 10 mg/L.

B2: OX40SF2IgG2sigma_R2BS6_HC-C (bispecific antibody)
heavy: QVQLVQSGAEVKKPGSSVKVSCKASGYTFKDYTMHWVRQAPGQGLEWIGGIYPNNGGSTYNQNFKDRVTLTADKSTSTAYMELSSLRSEDTAVYYCARMGYHGPHLDFDVWGQGTTVTVSSASTKGPSVFPLAPCSRSTSESTAALGCLVKDYFPEPVTVSWNSGALTSGVHTFPAVLQSSGLYSLSSVVTVPSSNFGTQTYTCNVDHKPSNTKVDKTVERKCCVECPPCPAPPAAASSVFLFPPKPKDTLMISRTPEVTCVVVDVSAEDPEVQFNWYVDGVEVHNAKTKPREEQFNSTFRVVSVLTVLHQDWLNGKEYKCKVSNKGLPSSIEKTISKTKGQPREPQVYTLPPSREEMTKNQVSLTCLVKGFYPSDIAVEWESNGQPENNYKTTPPMLDSDGSFFLYSKLTVDKSRWQQGNVFSCSVMHEALHNHYTQKSLSLSPGKGGGGGSGGGGSGGGGSGGGGSLPAPKNLVVSRVTEDSARLSWTAPDAAFDSFLIQYQESEKVGEAIVLTVPGSERSYDLTGLKPGTEYTVSIYGVQYAAWYLPRHHEASNPLSAIFTT
light: DIQMTQSPSSLSASVGDRVTITCKASQDVGAAVAWYQQKPGKAPKLLIYWASTRHTGVPSRFSGSGSGTDFTLTISSLQPEDFATYYCQQYINYPLTFGGGTKVEIKRTVAAPSVFIFPPSDEQLKSGTASVVCLLNNFYPREAKVQWKVDNALQSGNSQESVTEQDSKDSTYSLSSTLTLSKADYEKHKVYACEVTHQGLSSPVTKSFNRGEC
notes: mAbtyrin: anti-OX40 antibody OX40SF2, effector silent IgG2sigma, with linker and R2BS6 FN3 domain at the C-terminus of the heavy chain; also called mAbtyrin
With B2 the “% activity at 1 µg/ml with Raji cells (HEK-Blue: OX40 NF-κB reporter, relative to 1 µg/ml OX40 ligand)” value [1] was 83.5%, the “fold of agonism enhancement upon crosslinking (Raji cells)” value [1] was 17 fold and the “% OX40 cell killed by macrophages (ADCP, 1 µg/ml)” value [2] was 82%. The “Binding to HEK-Blue: OX40 cells (mean signal at 1 µg/ml)” value [3] was 10400 mean fluorescence signal, the “fold binding signal over OX40SF2IgG2sigma at 10 µg/mL” value [4] was ≥ 6 fold and the EC50 [5] was 0.7 mg/L. For the same binder, the EC50 [6] was 1.56 mg/L, the “Binding to Raji cells mean signals at 10 µg/ml” value [7] was 5380 mean fluorescence signal and the EC50 [7] was > 10 mg/L.
